Assay results: US20140087995A1 (published 2014)
Numbered stars: 1 amine (or outer) side, 2 acyl side, 3 side chain; on linkers, the order of the positions; unused ones are H or OH. Bridge positions count the residues as written; N and C are the ends. Square brackets hold non-standard residues; d marks the D form. Side chains are listed from the residue outwards. Ends that are not written are not given here. * marks the point of attachment. C20 diacid = O=C(O)CCCCCCCCCCCCCCCCCCC(=O)*; γGlu = O=C(O)[C@H](CCC(=O)[*:2])N[*:1]; C14 diacid = O=C(O)CCCCCCCCCCCCC(=O)*; AEEA = NCCOCCOCC(=O)O

Target: T1, human calcitonin receptor (human, UniProt P30988 25-474)
T1 sequence (looked up): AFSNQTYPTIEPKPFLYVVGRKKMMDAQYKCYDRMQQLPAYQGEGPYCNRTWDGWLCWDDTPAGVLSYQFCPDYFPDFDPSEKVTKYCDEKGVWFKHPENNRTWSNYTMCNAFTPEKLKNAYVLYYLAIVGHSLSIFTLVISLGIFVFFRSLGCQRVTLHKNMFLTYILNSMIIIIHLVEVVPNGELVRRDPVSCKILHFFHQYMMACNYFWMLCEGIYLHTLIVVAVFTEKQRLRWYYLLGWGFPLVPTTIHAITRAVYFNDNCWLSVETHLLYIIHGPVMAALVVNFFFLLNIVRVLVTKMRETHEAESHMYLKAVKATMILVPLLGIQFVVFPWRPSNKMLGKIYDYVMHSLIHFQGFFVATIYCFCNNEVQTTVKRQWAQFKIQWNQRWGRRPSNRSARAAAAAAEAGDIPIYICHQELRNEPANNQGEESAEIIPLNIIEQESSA
Experiment: cell-based or functional assay

Binder	hCTR funct. EC50 (pM)
K([AEEA-C20 diacid])CNTATCATQRLANFLRHSSPNFGAIPSSTNVGHNTY-NH2 (disulfide 2-7; N-terminus assumed; SMILES CC[C@H](C)[C@H](NC(=O)[C@H](C)NC(=O)CNC(=O)[C@H](Cc1ccccc1)NC(=O)[C@H](CC(N)=O)NC(=O)[C@@H]1CCCN1C(=O)[C@H](CO)NC(=O)[C@H](CO)NC(=O)[C@H](Cc1c[nH]cn1)NC(=O)[C@H](CCCNC(=N)N)NC(=O)[C@H](CC(C)C)NC(=O)[C@H](Cc1ccccc1)NC(=O)[C@H](CC(N)=O)NC(=O)[C@H](C)NC(=O)[C@H](CC(C)C)NC(=O)[C@H](CCCNC(=N)N)NC(=O)[C@H](CCC(N)=O)NC(=O)[C@@H](NC(=O)[C@H](C)NC(=O)[C@@H]1CSSC[C@H](NC(=O)[C@@H](N)CCCCNC(=O)COCCOCCNC(=O)CCCCCCCCCCCCCCCCCCC(=O)O)C(=O)N[C@@H](CC(N)=O)C(=O)N[C@@H]([C@@H](C)O)C(=O)N[C@@H](C)C(=O)N[C@@H]([C@@H](C)O)C(=O)N1)[C@@H](C)O)C(=O)N1CCC[C@H]1C(=O)N[C@@H](CO)C(=O)N[C@@H](CO)C(=O)N[C@H](C(=O)N[C@@H](CC(N)=O)C(=O)N[C@H](C(=O)NCC(=O)N[C@@H](Cc1c[nH]cn1)C(=O)N[C@@H](CC(N)=O)C(=O)N[C@H](C(=O)N[C@@H](Cc1ccc(O)cc1)C(N)=O)[C@@H](C)O)C(C)C)[C@@H](C)O, also called compound 91) [N^ε1-[2-[2-[2-(19-carboxynonadecanoylamino)ethoxy]ethoxy]acetyl]-[Arg17,Pro21,Pro27,His34]-h-amylin]	1480 pM
K([γGlu-C14 diacid])CNTATCATQRLANFLRHSSPNFGAIPSSTNVGHNTY-NH2 (disulfide 2-7; N-terminus assumed; SMILES CC[C@H](C)[C@H](NC(=O)[C@H](C)NC(=O)CNC(=O)[C@H](Cc1ccccc1)NC(=O)[C@H](CC(N)=O)NC(=O)[C@@H]1CCCN1C(=O)[C@H](CO)NC(=O)[C@H](CO)NC(=O)[C@H](Cc1c[nH]cn1)NC(=O)[C@H](CCCNC(=N)N)NC(=O)[C@H](CC(C)C)NC(=O)[C@H](Cc1ccccc1)NC(=O)[C@H](CC(N)=O)NC(=O)[C@H](C)NC(=O)[C@H](CC(C)C)NC(=O)[C@H](CCCNC(=N)N)NC(=O)[C@H](CCC(N)=O)NC(=O)[C@@H](NC(=O)[C@H](C)NC(=O)[C@@H]1CSSC[C@H](NC(=O)[C@@H](N)CCCCNC(=O)CC[C@H](NC(=O)CCCCCCCCCCCCC(=O)O)C(=O)O)C(=O)N[C@@H](CC(N)=O)C(=O)N[C@@H]([C@@H](C)O)C(=O)N[C@@H](C)C(=O)N[C@@H]([C@@H](C)O)C(=O)N1)[C@@H](C)O)C(=O)N1CCC[C@H]1C(=O)N[C@@H](CO)C(=O)N[C@@H](CO)C(=O)N[C@H](C(=O)N[C@@H](CC(N)=O)C(=O)N[C@H](C(=O)NCC(=O)N[C@@H](Cc1c[nH]cn1)C(=O)N[C@@H](CC(N)=O)C(=O)N[C@H](C(=O)N[C@@H](Cc1ccc(O)cc1)C(N)=O)[C@@H](C)O)C(C)C)[C@@H](C)O) [N^ε1-[(4S)-4-carboxy-4-(13-carboxytridecanoylamino)butanoyl]-[Arg17,Pro21,Pro27,His34]-h-amylin]	1090 pM
K([AEEA-AEEA-γGlu-C20 diacid])CNTATCATQRLANFLRHSSPNFGAIPSSTNVGHNTY-NH2 (disulfide 2-7; N-terminus assumed; SMILES CC[C@H](C)[C@H](NC(=O)[C@H](C)NC(=O)CNC(=O)[C@H](Cc1ccccc1)NC(=O)[C@H](CC(N)=O)NC(=O)[C@@H]1CCCN1C(=O)[C@H](CO)NC(=O)[C@H](CO)NC(=O)[C@H](Cc1c[nH]cn1)NC(=O)[C@H](CCCNC(=N)N)NC(=O)[C@H](CC(C)C)NC(=O)[C@H](Cc1ccccc1)NC(=O)[C@H](CC(N)=O)NC(=O)[C@H](C)NC(=O)[C@H](CC(C)C)NC(=O)[C@H](CCCNC(=N)N)NC(=O)[C@H](CCC(N)=O)NC(=O)[C@@H](NC(=O)[C@H](C)NC(=O)[C@@H]1CSSC[C@H](NC(=O)[C@@H](N)CCCCNC(=O)COCCOCCNC(=O)COCCOCCNC(=O)CC[C@H](NC(=O)CCCCCCCCCCCCCCCCCCC(=O)O)C(=O)O)C(=O)N[C@@H](CC(N)=O)C(=O)N[C@@H]([C@@H](C)O)C(=O)N[C@@H](C)C(=O)N[C@@H]([C@@H](C)O)C(=O)N1)[C@@H](C)O)C(=O)N1CCC[C@H]1C(=O)N[C@@H](CO)C(=O)N[C@@H](CO)C(=O)N[C@H](C(=O)N[C@@H](CC(N)=O)C(=O)N[C@H](C(=O)NCC(=O)N[C@@H](Cc1c[nH]cn1)C(=O)N[C@@H](CC(N)=O)C(=O)N[C@H](C(=O)N[C@@H](Cc1ccc(O)cc1)C(N)=O)[C@@H](C)O)C(C)C)[C@@H](C)O, also called compound 97)	11800 pM

Target: T2, human calcitonin receptor (human, UniProt P30988 25-474)
T2 sequence (looked up): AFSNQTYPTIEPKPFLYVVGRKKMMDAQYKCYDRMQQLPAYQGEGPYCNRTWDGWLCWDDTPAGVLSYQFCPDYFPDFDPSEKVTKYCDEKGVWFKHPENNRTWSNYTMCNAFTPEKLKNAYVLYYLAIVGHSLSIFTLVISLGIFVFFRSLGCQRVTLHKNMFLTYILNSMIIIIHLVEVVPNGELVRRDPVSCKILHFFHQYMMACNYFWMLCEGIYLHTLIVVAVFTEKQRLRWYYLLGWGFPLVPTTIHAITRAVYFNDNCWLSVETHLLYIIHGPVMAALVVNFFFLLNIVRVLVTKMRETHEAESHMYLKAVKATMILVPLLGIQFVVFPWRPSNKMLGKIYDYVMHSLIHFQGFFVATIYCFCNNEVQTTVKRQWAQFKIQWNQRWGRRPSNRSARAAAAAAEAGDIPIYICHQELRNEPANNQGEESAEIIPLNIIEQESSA
Experiment: cell-based or functional assay

Binder	hCTR funct. EC50 (pM)
K([γGlu-C20 diacid])CNTATCATQRLAEFLRHSSPNFGAIPSSTNVGPETY-NH2 (disulfide 2-7 (inferred), Synthetic)	841 pM
K([γGlu-γGlu-C20 diacid])CNTATCATQRLA[dD]FLRHSSPNFGAIPSSTNVGSRTY-NH2 (disulfide 2-7 (inferred), Synthetic)	100000 pM
K([γGlu-γGlu-C20 diacid])CNTATCATQRLAEFLRHSSPNFGAIPSSTNVGPHTY-NH2 (disulfide 2-7 (inferred), Synthetic)	2830 pM
K([γGlu-γGlu-C20 diacid])CNTATCATQRLASFLRHSSPNFGAIPSSTNVGPETY-NH2 (disulfide 2-7 (inferred), Synthetic; also called compound 120)	887 pM
K([γGlu-γGlu-C20 diacid])CNTATCATQRLAEFLRHSSPNFGAIPSSTNVGPNTF-NH2 (disulfide 2-7 (inferred), Synthetic)	2140 pM
K([γGlu-γGlu-C20 diacid])CNTATCATQRLAEFLRHSSPNFGAIPSSTNVGHETY-NH2 (disulfide 2-7 (inferred), Synthetic)	7050 pM
K([γGlu-γGlu-C20 diacid])CNTATCATQRLAEFLRHSSPNFGAIPSSTNVGRETY-NH2 (disulfide 2-7 (inferred), Synthetic)	7430 pM
K([γGlu-γGlu-C20 diacid])CNTATCATQRLAEFLRHSSPNFGAIPSSTNVGPRTY-NH2 (disulfide 2-7 (inferred), Synthetic; also called compound 110)	8160 pM
